Positions of bridges follow the written chain, without caps; N, C: chain ends. Non-standard residues stand in square brackets, D forms with d. No end group written: not given here. Aib = CC(C)(N)C(=O)O
What follows are substances tested against T1, human GIP receptor (Homo sapiens, UniProt P48546) (assay: In vitro cAMP activity (LANCE cAMP kit) in CHO cells expressing human GIP receptor, relative to human GIP). Conditions: long-acting conjugates, relative potency from cAMP EC50 compared to human GIP.
T1 construct: expressed in transfected cells; host or cells: Chinese hamster ovary (CHO)
T1 sequence (P48546 22-466): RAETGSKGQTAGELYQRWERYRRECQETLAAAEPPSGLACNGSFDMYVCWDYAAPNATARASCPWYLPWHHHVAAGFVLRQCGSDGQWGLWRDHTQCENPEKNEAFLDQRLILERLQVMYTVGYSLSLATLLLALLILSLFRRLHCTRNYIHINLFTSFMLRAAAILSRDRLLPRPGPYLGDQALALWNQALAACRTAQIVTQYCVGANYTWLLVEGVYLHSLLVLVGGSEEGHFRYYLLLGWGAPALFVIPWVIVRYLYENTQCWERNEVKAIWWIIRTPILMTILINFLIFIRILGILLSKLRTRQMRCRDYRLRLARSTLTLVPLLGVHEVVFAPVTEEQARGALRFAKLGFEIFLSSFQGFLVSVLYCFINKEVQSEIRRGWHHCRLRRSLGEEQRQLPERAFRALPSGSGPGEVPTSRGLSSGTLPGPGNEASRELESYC
Type: cell-based
Experimental: (§1) The activities of the triple agonists and long-acting conjugates thereof prepared in Examples 1 and 2 were measured by a method of measuring in vitro cellular activities using cell lines, where a GLP-1 receptor, a glucagon (GCG) receptor, and a GIP receptor are transformed, respectively.
(§2) Each of the cell lines above is one in which the genes for human GLP-1 receptor, human GCG receptor, and human GIP receptor were transformed in Chinese hamster ovary (CHO), respectively, and can be expressed therein, and is thus suitable for the measurement of the activities of GLP-1, GCG, and GIP. Accordingly, the activity for each part was measured using the respective transformed cell line.
(§3) For the measurement of the GIP activities of the triple agonists and long-acting conjugates prepared in Examples 1 and 2, human GIP was subjected to a 4-fold serial dilution from 50 nM to 0.000048 nM, and the triple agonists and long-acting conjugates thereof prepared in Examples 1 and 2 were subjected to a 4-fold serial dilution from 400 nM to 0.00038 nM. The culture solution was removed from the cultured CHO cells, in which the human GIP receptor was expressed, and each of the serially-diluted materials was added to the CHO cells in an amount of 5 μL, respectively. Then, a buffer solution containing cAMP antibody was added thereto in an amount of 5 μL and cultured at room temperature for 15 minutes. Then, a detection mix containing a cell lysis buffer was added thereto in an amount of 10 μL for the lysis of the cells and reacted at room temperature for 90 minutes. The cell lysates, upon completion of the reaction, were applied to LANCE cAMP kit (PerkinElmer, USA) to calculate the EC50 value via accumulated cAMP, and the values were compared with each other.

Substance	In vitro activity compared to native peptide (%) vs. GIP
77 (Y[Aib]QGTFTSDYSKYLDEKAAKDFVQWLLDHHPSSGQPPPSC; bridge 16-20) [compound 77]	6.6%
50 (H[Aib]QGTFTSDYSKYLDEKRAKEFVQWLLDHHPSSGQPPPSC; bridge 16-20) [compound 50]	0.7%
42 (Y[Aib]QGTFTSDYSKYLDEKRAKEFVQWLLDHHPSSGQPPPSC; bridge 16-20) [compound 42]	1.2%
43 (Y[Aib]QGTFTSDYSKYLDEKRAKEFVQWLLDHHCSSGQPPPS; bridge 16-20) [compound 43]	0.6%
21 (Y[Aib]QGTFTSDYSKYLDECRAKEFVQWLLDHHPSSGQPPPS; bridge 16-20) [compound 21]	0.2%
96 (Y[Aib]QGTFTSDYSKYLDEKRAKEFVQWLLDHCPSSGQPPPS; bridge 16-20) [compound 96]	0.3%
22 (Y[Aib]QGTFTSDYSKCLDEKRAKEFVQWLLDHHPSSGQPPPS; bridge 16-20) [compound 22]	0.5%

These substances were tested against T2, human GCG receptor (Homo sapiens, UniProt P47871) (assay: In vitro cAMP activity (LANCE cAMP kit) in CHO cells expressing human GCG receptor, relative to human GCG). Conditions: long-acting conjugates, relative potency from cAMP EC50 compared to human GCG.
T2 construct: expressed in transfected cells; host or cells: Chinese hamster ovary (CHO)
Type: cell-based
Experimental: as §1, §2
as §3, with “GCG” for “GIP”

T2 sequence (P47871 26-477): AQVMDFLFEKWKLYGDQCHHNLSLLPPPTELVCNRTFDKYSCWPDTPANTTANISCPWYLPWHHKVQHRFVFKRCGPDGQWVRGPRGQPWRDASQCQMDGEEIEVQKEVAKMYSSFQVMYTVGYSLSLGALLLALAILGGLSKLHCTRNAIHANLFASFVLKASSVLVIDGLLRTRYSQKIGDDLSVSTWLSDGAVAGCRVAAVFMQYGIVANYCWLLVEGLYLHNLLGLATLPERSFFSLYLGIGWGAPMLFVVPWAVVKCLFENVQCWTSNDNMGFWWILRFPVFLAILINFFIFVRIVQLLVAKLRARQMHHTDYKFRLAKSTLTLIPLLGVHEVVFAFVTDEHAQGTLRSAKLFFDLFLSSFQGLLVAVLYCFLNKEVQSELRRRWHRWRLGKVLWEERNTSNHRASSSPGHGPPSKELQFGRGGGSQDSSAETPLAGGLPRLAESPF

Substance	In vitro activity compared to native peptide (%) vs. Glucagon
77 (Y[Aib]QGTFTSDYSKYLDEKAAKDFVQWLLDHHPSSGQPPPSC; bridge 16-20) [compound 77]	1.7%
50 (H[Aib]QGTFTSDYSKYLDEKRAKEFVQWLLDHHPSSGQPPPSC; bridge 16-20) [compound 50]	6.9%
42 (Y[Aib]QGTFTSDYSKYLDEKRAKEFVQWLLDHHPSSGQPPPSC; bridge 16-20) [compound 42]	23.1%
43 (Y[Aib]QGTFTSDYSKYLDEKRAKEFVQWLLDHHCSSGQPPPS; bridge 16-20) [compound 43]	13.5%
21 (Y[Aib]QGTFTSDYSKYLDECRAKEFVQWLLDHHPSSGQPPPS; bridge 16-20) [compound 21]	1.6%
96 (Y[Aib]QGTFTSDYSKYLDEKRAKEFVQWLLDHCPSSGQPPPS; bridge 16-20) [compound 96]	4.0%
22 (Y[Aib]QGTFTSDYSKCLDEKRAKEFVQWLLDHHPSSGQPPPS; bridge 16-20) [compound 22]	0.9%

The substances below were run against T3, human GLP-1 receptor (Homo sapiens, UniProt P43220) (assay: In vitro cAMP activity (LANCE cAMP kit) in CHO cells expressing human GLP-1 receptor, relative to human GLP-1). Conditions: long-acting conjugates; relative potency from cAMP EC50 compared to human GLP-1, CHO cells.
T3 construct: expressed in transfected cells; host or cells: Chinese hamster ovary (CHO)
Type: cell-based
Experimental: as §1, §2
as §3, with “GLP-1” for “GIP”

T3 sequence (P43220 24-463): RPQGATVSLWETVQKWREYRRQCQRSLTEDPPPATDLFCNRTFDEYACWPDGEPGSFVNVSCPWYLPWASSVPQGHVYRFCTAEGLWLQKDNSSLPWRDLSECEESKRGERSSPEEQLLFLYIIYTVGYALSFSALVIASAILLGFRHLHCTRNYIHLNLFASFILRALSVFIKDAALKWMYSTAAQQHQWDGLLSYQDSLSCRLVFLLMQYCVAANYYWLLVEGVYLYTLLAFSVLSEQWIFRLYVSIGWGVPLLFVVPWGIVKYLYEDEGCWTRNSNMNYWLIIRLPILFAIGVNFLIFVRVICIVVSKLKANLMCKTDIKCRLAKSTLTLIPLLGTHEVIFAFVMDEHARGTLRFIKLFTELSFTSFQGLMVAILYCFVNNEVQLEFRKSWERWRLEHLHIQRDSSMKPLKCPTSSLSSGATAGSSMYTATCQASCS

Substance	In vitro activity compared to native peptide (%) vs. GLP-1
77 (Y[Aib]QGTFTSDYSKYLDEKAAKDFVQWLLDHHPSSGQPPPSC; bridge 16-20) [compound 77]	6.7%
50 (H[Aib]QGTFTSDYSKYLDEKRAKEFVQWLLDHHPSSGQPPPSC; bridge 16-20) [compound 50]	15.4%
42 (Y[Aib]QGTFTSDYSKYLDEKRAKEFVQWLLDHHPSSGQPPPSC; bridge 16-20) [compound 42]	3.1%
43 (Y[Aib]QGTFTSDYSKYLDEKRAKEFVQWLLDHHCSSGQPPPS; bridge 16-20) [compound 43]	2.1%
21 (Y[Aib]QGTFTSDYSKYLDECRAKEFVQWLLDHHPSSGQPPPS; bridge 16-20) [compound 21]	0.1%
96 (Y[Aib]QGTFTSDYSKYLDEKRAKEFVQWLLDHCPSSGQPPPS; bridge 16-20) [compound 96]	0.3%
22 (Y[Aib]QGTFTSDYSKCLDEKRAKEFVQWLLDHHPSSGQPPPS; bridge 16-20) [compound 22]	0.1%

Reference: patent US10981967B2, “Long-acting conjugate of triple glucagon/GLP-1/GIP receptor agonist” (HANMI PHARM. CO., LTD., priority 2015, dated 2021)
